# T1: Rab34 (Homo sapiens, UniProt Q9BZG1, Q111L)
# T1 construct: full-length Rab34 from E. coli, preparatively loaded with GppNHp
# T1 sequence (Q9BZG1 1-237 Q111L): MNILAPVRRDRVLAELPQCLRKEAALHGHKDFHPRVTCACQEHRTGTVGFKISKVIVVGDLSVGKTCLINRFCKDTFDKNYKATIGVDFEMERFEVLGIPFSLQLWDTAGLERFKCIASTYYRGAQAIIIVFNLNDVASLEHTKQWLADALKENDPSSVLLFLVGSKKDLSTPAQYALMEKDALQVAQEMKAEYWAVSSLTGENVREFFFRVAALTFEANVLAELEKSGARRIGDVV
# T2: Rep15, full length (natural N101D variant) (human, UniProt Q6BDI9 1-236, N101D)
# T2 sequence: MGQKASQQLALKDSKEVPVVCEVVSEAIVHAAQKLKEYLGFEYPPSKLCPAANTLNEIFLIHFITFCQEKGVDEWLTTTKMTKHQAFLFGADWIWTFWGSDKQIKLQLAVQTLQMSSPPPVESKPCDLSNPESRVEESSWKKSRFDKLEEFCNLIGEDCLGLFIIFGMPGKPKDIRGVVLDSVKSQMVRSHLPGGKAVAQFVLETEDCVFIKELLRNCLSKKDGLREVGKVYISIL
# T3: Rab34 Q111L 1-237 (dominant active), purified, GTP-loaded (human, UniProt Q9BZG1 1-237, Q111L)
# T3 construct: Rab34, human, residues 1-237 with Q111L; also called Rab34_(Q111L_1-237aa)
# T3 sequence (looked up): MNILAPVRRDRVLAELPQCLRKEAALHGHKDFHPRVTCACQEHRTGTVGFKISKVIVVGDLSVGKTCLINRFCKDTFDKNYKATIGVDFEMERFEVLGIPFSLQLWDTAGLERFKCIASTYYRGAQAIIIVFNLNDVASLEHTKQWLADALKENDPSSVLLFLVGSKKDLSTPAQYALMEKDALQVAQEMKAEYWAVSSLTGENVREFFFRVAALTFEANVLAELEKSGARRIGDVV
# T4: Rab34 Q111L F114Y, purified (human, UniProt Q9BZG1 1-237, Q111L | F114Y)
# T4 sequence: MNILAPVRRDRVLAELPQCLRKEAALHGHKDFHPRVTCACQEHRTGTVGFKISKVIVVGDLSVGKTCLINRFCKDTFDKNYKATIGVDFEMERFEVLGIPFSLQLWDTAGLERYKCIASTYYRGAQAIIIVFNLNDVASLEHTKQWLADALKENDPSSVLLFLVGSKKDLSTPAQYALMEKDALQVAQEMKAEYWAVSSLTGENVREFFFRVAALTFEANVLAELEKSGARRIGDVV
# B1: Rep15, full length (natural N101D variant) (natural protein, human, UniProt Q6BDI9 1-236, looked up)
# chain: MGQKASQQLALKDSKEVPVVCEVVSEAIVHAAQKLKEYLGFEYPPSKLCPAANTLNEIFLIHFITFCQEKGVDEWLTTTKMTKHQAFLFGADWIWTFWGSDKQIKLQLAVQTLQMSSPPPVESKPCDLSNPESRVEESSWKKSRFDKLEEFCNLIGEDCLGLFIIFGMPGKPKDIRGVVLDSVKSQMVRSHLPGGKAVAQFVLETEDCVFIKELLRNCLSKKDGLREVGKVYISIL
# notes: also called full-length Rep15; Rab15 effector protein
# Key:
# Rab34 = molecular target: T1, Rab34; test: nucleotide loading, C18 reversed-phase HPLC of bound nucleotide; type: binding
# [1] = molecular target: T2, Rep15, full length (natural N101D …); test: ITC
# [2] = molecular target: B1; test: SEC; analytical SEC; 110 µM Rep15 and 121 µM Rab mixed; Superdex 75 10/300 GL; 20 mM Hepes 8.0, 50 mM NaCl, 1 mM MgCl2, 2 mM DTE; room temperature; settings: both partners purified
# [3] = molecular target: B1; test: fluorescence polarisation; stopped flow, association; mant-GppNHp Rab15 mixed with increasing Rep15 (2.5–25 µM); 25 °C; 20 mM Hepes 8.0, 50 mM NaCl, 2 mM MgCl2, 2 mM DTE; kobs against Rep15 concentration, koff from the intercept, KD as koff/kon; settings: both partners purified
# [4] = molecular target: B1; test: ITC; 500/600 µM GppNHp/GTP Rab titrated into 50/60 µM Rep15; 20 mM Hepes 8.0, 50 mM NaCl, 1 mM MgCl2, 1 mM TCEP; one-site-binding model; settings: both partners purified
# [5] = molecular target: T2, Rep15, full length (natural N101D …); test: ITC; remark: listed apart in the source
# [6] = molecular target: Rep15, full length (natural N101D variant) (human) (UniProt Q6BDI9); test: ITC; 500/600 µM GppNHp/GTP Rab titrated into 50/60 µM Rep15; 20 mM Hepes 8.0, 50 mM NaCl, 1 mM MgCl2, 1 mM TCEP; one-site-binding model
# [7] = molecular target: T3, Rab34 Q111L 1-237 (dominant active), …; test: as above; settings: both partners purified
# [8] = molecular target: T4, Rab34 Q111L F114Y, purified; test: ITC
molecule,measurement,setting,value
Nc1nc2c(ncn2[C@@H]2O[C@H](COP(=O)(O)OP(N)(=O)O)[C@@H](O)[C@H]2O)c(=O)[nH]1 [GppNH2],"nucleotide loading, C18 reversed-phase HPLC of bound nucleotide","Rab34; formed during loading with GppNHp, mixture with GppNHp","apart from GppNHp, Rab34 is also bound to GppNH2 (hydrolysis product of GppNHp)"
"Nc1nc2c(ncn2[C@@H]2O[C@H](COP(=O)(O)OP(=O)(O)NP(=O)(O)O)[C@@H](O)[C@H]2O)c(=O)[nH]1 [GppNHp, Guanosine-5′-[β-γ-Imido]-triphosphate]","nucleotide loading, C18 reversed-phase HPLC of bound nucleotide","Rab34; preparative nucleotide exchange, mixture with GppNH2","apart from GppNHp, Rab34 is also bound to GppNH2 (hydrolysis product of GppNHp)"
"Rab3D, purified, GppNHp-loaded (natural protein, human, UniProt O95716 1-219, looked up, Rab3D, human; source: E. coli BL21 Codon-Plus (DE3)-RIL, purified (Ni Sepharose, TEV cleavage, gel filtration)) MASAGDTQAGPRDAADQNFDYMFKLLLIGNSSVGKTSFLFRYADDSFTPAFVSTVGIDFKVKTVYRHDKRIKLQIWDTAGQERYRTITTAYYRGAMGFLLMYDIANQESFAAVQDWATQIKTYSWDNAQVILVGNKCDLEDERVVPAEDGRRLADDLGFEFFEASAKENINVKQVFERLVDVICEKMNESLEPSSSSGSNGKGPAVGDAPAPQPSSCSC",Kd,[1],790 nM
same,binding result,[2],binds
"Rab15, purified, nucleotide-loaded (natural protein, human, UniProt P59190 1-212, looked up, Rab15, human; Loaded with GppNHp (aSEC, ITC) or mant-GppNHp / mant-dGppNHp (stopped flow); also called Rab15_(GppNHp); Rab15_(mant-GppNHp); source: E. coli BL21 Codon-Plus (DE3)-RIL, purified (Ni Sepharose, TEV cleavage, gel filtration)) MAKQYDVLFRLLLIGDSGVGKTCLLCRFTDNEFHSSHISTIGVDFKMKTIEVDGIKVRIQIWDTAGQERYQTITKQYYRRAQGIFLVYDISSERSYQHIMKWVSDVDEYAPEGVQKILIGNKADEEQKRQVGREQGQQLAKEYGMDFYETSACTNLNIKESFTRLTELVLQAHRKELEGLRMRASNELALAELEEEEGKPEGPANSSKTCWC",Kd,[3],580 nM
same,koff,[3],4.73 s⁻¹
same,kon,[3],8.16e+06 M⁻¹ s⁻¹
same,Kd,[4],470 ± 120 nM
same,stoichiometry N,[4],1
"Rab3B, purified, GppNHp-loaded (natural protein, human, Rab3B, human; also called Rab3B_(GppNHp); source: E. coli BL21 Codon-Plus (DE3)-RIL, purified (Ni Sepharose, TEV cleavage, gel filtration)) MASVTDGKTGVKDASDQNFDYMFKLLIIGNSSVGKTSFLFRYADDTFTPAFVSTVGIDFKVKTVYRHEKRVKLQIWDTAGQERYRTITTAYYRGAMGFILMYDITNEESFNAVQDWATQIKTYSWDNAQVILVGNKCDMEEERVVPTEKGQLLAEQLGFDFFEASAKENISVRQAFERLVDAICDKMSDSLDTDPSMLGSSKNTRLSDTPPLLQQNCSC",Kd,[1],2160 nM
same,binding result,[2],binds
"Rab27A F81Y, purified (natural protein, human, UniProt P51159 1-221, looked up, Rab27A, human, with F81Y; also called F81Y Rab27A; source: E. coli, purified) MSDGDYDYLIKFLALGDSGVGKTSVLYQYTDGKFNSKFITTVGIDFREKRVVYRASGPDGATGRGQRIHLQLWDTAGQERYRSLTTAFFRDAMGFLLLFDLTNEQSFLNVRNWISQLQMHAYCENPDIVLCGNKSDLEDQRVVKEEEAIALAEKYGIPYFETSAANGTNISQAIEMLLDLIMKRMERCVDKSWIPEGVVRSNGHASTDQLSEEKEKGACGC",fold increase in affinity against wild-type Rab27A,[4],> 8 fold
same,Kd,[5],10800 nM
"Rab27A, purified (natural protein) MSDGDYDYLIKFLALGDSGVGKTSVLYQYTDGKFNSKFITTVGIDFREKRVVYRASGPDGATGRGQRIHLQLWDTAGQERFRSLTTAFFRDAMGFLLLFDLTNEQSFLNVRNWISQLQMHAYCENPDIVLCGNKSDLEDQRVVKEEEAIALAEKYGIPYFETSAANGTNISQAIEMLLDLIMKRMERCVDKSWIPEGVVRSNGHASTDQLSEEKEKGACGC",Kd,[5],86200 nM
"Rab3A Y84F, purified (natural protein) MASATDSRYGQKESSDQNFDYMFKILIIGNSSVGKTSFLFRYADDSFTPAFVSTVGIDFKVKTIYRNDKRIKLQIWDTAGQERFRTITTAYYRGAMGFILMYDITNEESFNAVQDWSTQIKTYSWDNAQVLLVGNKCDMEDERVVSSERGRQLADHLGFEFFEASAKDNINVKQTFERLVDVICEKMSESLDTADPAVTGAKQGPQLSDQQVPPHQDCAC",fold reduction in affinity against wild-type Rab3A,[6],23 fold
same,Kd,[5],11100 nM
"Rab3A V61N, purified (natural protein, human, UniProt P20336 1-220, looked up, Rab3A, human, with V61N; Tag as told for the 6His-tagged Rab3 paralogs in general; source: E. coli BL21 Codon-Plus (DE3)-RIL, purified) MASATDSRYGQKESSDQNFDYMFKILIIGNSSVGKTSFLFRYADDSFTPAFVSTVGIDFKNKTIYRNDKRIKLQIWDTAGQERYRTITTAYYRGAMGFILMYDITNEESFNAVQDWSTQIKTYSWDNAQVLLVGNKCDMEDERVVSSERGRQLADHLGFEFFEASAKDNINVKQTFERLVDVICEKMSESLDTADPAVTGAKQGPQLSDQQVPPHQDCAC",binding result,[4],binds
same,Kd,[5],390 nM
B1,Kd,[7],64 ± 32 nM
same,Kd,[8],78.7 nM

# Source: PMC9308819 (Nature Communications, 2022)
